{"source": "the nanobody polyreactivity screen of Harvey et al. (2022)"}
{"test": "yeast display, Sf9 membrane polyspecificity reagent, FACS + sequencing; frameworks hold sequencing errors", "procedure,_shortened": "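A synthetic nanobody library was expressed on Saccharomyces cerevisiae BJ5465 by galactose induction for 36–48 hours. The library was stained for 1 hour at 4 °C with 10% biotinylated, detergent-solubilized Sf9 membrane reagent and enriched with streptavidin microbeads before FACS. Low and high (top ~1%) gates were set on anti-HA fluorescence for expression and streptavidin fluorescence for reagent binding, and each polyreactivity label reflects the gate of origin.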"}
{"sequence": "QGQLVESGGGLVQAGGSLRLSCAASGSTFANYDMAWYRQAPGKERELVAAITSRGGSTYYADSVKGRFTISRDNAKNTVYLQMNSLKPEDTAVYYCAAVTRNQGSFRYYFWGQGTQVTVSS", "polyreactivity (PSR sort gate)": "high polyreactivity"}
{"sequence": "QVQLVESGGGLVQAGGSLRLICAASGSTFFANAMGWYRPAPGKERELVAVITYSGGSTYYADSVKGRFTISRYNAKNTVYLQMNSLKPEDTAVDYCAAKSYFRPYSYSYSYWGQGTQVTVSS", "polyreactivity (PSR sort gate)": "high polyreactivity"}
{"sequence": "QVQLVESGGGLVQAGGSLRLSCAASGRIFYRNTMGWYRQAPGKERELVAPITSSGASTYYADSVKGRFTISRDIAKNTVYLQMNSLKPEDTAVYFCGAQPYVEGTKRYYWGQGTQVTVSS", "polyreactivity (PSR sort gate)": "high polyreactivity"}
{"sequence": "QVQLVESGGGLVQAGGRLRLISAASGSIFYYNAMGWYRQAPGKERELVAAISWSADSTYYADSVKGRFTISRDNAKNTVYLQMNSLKPEDSAAYYCNTDLVPWTEYWYDYWGQGTQVTVSS", "polyreactivity (PSR sort gate)": "low polyreactivity"}
{"sequence": "QVQLVESGGGLVQAGGSLRLSCAASGRTFRPYAMGWYRQAPGKERELVAVITSGDSTSYADSVKGRFTISRDNAKNTVYLQMNSLKPEDTAVYYCAADSYSGYNYWGQGTQVTVSS", "polyreactivity (PSR sort gate)": "low polyreactivity"}
{"sequence": "QVQLVESGGGLVQAGGSLRLSCAASGSIISYYAMGWYRQAPGKERELVAAITASGGSTYYADSVKGRFTISRDNAKNTVYLQMNSLKPEDTAVYYCAAGTHTDYGRYYYWGQGTQVTVSS", "polyreactivity (PSR sort gate)": "low polyreactivity"}
{"sequence": "QVQLEESGGGLVQAGGSLRLSSAASGRIFRAYAMGRYRQAPGKERELVAAITSGGGSTYYADSVKGRFTISRHNAKNTVYLQMNSLKPEDTAVYYSAAKSSRIAYSSWFYYATFDYWGQGTQVTVSS", "polyreactivity (PSR sort gate)": "high polyreactivity"}
{"sequence": "QDQLVESGGGLVQAGGSLRLSCAASGLTYRLNAMGWYRQAPGKEREFVAAISAIGDRTYYADSVKGRFTISRDNAKNTVYLQMNSLKPEDTSVYYCNVTPRSAQVRIGNYWGQGTQVTVSS", "polyreactivity (PSR sort gate)": "high polyreactivity"}
{"sequence": "QVQLVESGRGLVQAGGSLRLSCAASGIIFYENTMGWYRLAPGKERELVASISWSGGRTYNADSVKGRFTISRDNAKNTVDLQMNSLKPEDTAVYYCAGRPYYLYIYNFWGQGTQVTVSS", "polyreactivity (PSR sort gate)": "high polyreactivity"}
{"sequence": "QVQLVESGGGLVQAGGSLRLSCAASGFTFRQYAMGWYRQAPGKERELVAAISSGGSTYYADSVKGRFTISRDNAKNTVYLQMNSLKPEDTAVYYCNAVARYYVAYDMYWGQGTQVTVSS", "polyreactivity (PSR sort gate)": "high polyreactivity"}
{"sequence": "QVQLVESGGGLVQAGGSLRLSCAASGSIFRGYTMGWYRQAPGKERELVATISWSGGSTYYADTVKGRFTISRDNAKNTVYLQMNSLKREDTAVYYCDARNQCRGYYWGEGTQVTVSS", "polyreactivity (PSR sort gate)": "high polyreactivity"}
{"sequence": "QVHLVESGGGLVQAGGSLRLSCAAYGRSFSSNAMGWYGQAPGKERELVAAISSSGAGTYYADSVKGRFTISRDNAKNTVYLQMNRLKPEDTAVYYCAARANSYHSFTSHYDYWGQGTQVTLSS", "polyreactivity (PSR sort gate)": "low polyreactivity"}
{"sequence": "QVQLVESGAGLVQAGGSLRLTCAASGSTFLDMGLYRQAPAKEREFVASISLSGGSTYYADSVKGRFTISRDNAKNTVYLQMNSLKPEDTAVYYCNAEAWWYFWFDYWGQGTQVTVSS", "polyreactivity (PSR sort gate)": "low polyreactivity"}
{"sequence": "QVQLVESGGGLVQAGGSLRLSCAASGFIFRLYAMGWYRQAPGKERELVAAISRGGSTTYADSVKGRFTISRDNAKNTVYLQMNSLKPEDTAVYYCATEGDYVAYLYDYWGQGTQVTVSS", "polyreactivity (PSR sort gate)": "low polyreactivity"}
{"sequence": "QVQLVESGGGLVQAGGSLRLSCAASGSTFRQYAMGWYRQAPGKERELVAAISSSGSTTYYADSVKGRFTISRDNAKNTVYLQMNSLKPEDTAVYYCAAEYTFHYDYWGQGTQVTVSS", "polyreactivity (PSR sort gate)": "low polyreactivity"}
{"sequence": "QVQLVESGGGLVQAGGSLRLSCAASGFTFVRYTMGWYRQAPGKERELVAAINRSGGNTYYADSVKGRFTISRDNAKKTVYLQMNSLKPEDTAVYYCAAGYYVQVSLKDYYWGQGTQVTVSS", "polyreactivity (PSR sort gate)": "high polyreactivity"}
{"sequence": "QVQLVESGGGIVQAGGSLRLSCAASGIIFDINSMGWYRQAPGKERELVAAITTSVDSTYYAHSVKGRFTISRDNAKNTVYLQMYSLQPEDTAVYYCSVSFVQFTQYDYWGQGTQVTVSS", "polyreactivity (PSR sort gate)": "low polyreactivity"}
